The values below come from publication PMC4041450.

Series [1] addresses T1, SHARP R2-3-4h (SHARP-RRM) (Homo sapiens, UniProt Q96T58 335-620).
T1 sequence: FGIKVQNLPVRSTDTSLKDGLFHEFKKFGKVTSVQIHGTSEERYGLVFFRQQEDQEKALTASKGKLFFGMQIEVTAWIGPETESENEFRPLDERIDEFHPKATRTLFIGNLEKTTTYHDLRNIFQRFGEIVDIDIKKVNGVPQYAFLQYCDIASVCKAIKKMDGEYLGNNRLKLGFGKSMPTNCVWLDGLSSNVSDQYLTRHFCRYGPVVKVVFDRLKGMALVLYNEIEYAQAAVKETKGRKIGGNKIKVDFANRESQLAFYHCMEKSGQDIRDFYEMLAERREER
Description: competition.

The next series concerns the target T2, GST-His-SHARP R3-4h (Homo sapiens, UniProt Q96T58 436-620).
T2 sequence: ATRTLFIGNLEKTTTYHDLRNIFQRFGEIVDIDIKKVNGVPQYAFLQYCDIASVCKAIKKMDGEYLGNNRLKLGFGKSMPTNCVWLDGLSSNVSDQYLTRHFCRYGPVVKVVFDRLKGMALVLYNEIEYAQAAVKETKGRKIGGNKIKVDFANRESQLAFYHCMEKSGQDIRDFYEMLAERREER
The series can be described thus: UV crosslinking.

B1: A15 (ssRNA)
RNA: AAAAAAAAAAAAAAA
For the molecule B1, the binding result in series [1] was “no binding”.

B2: SRA RNA H12-H13 extended (structured_RNA)
RNA: GGGAGCAGGUAUGUGAUGACAUCAGCCGACGCCUGGCACUGCUGCAGGAACAGUGGGCUGGAGGAAAGUUGUCAAUACCUGUAAGAGACCGAAUUCACUGGCCGUCGUUUUACAACGUCGUGACUGGGAAAAC
B2: in the series with GST-His-SHARP R3-4h, the binding result is on record as “binds”.
